Laboratory results from article PMC10786891, “Massively parallel profiling of RNA-targeting CRISPR-Cas13d”.
Positions count from the first letter of the chain named. Names and notes keep the numbering of the source.

T1: EsCas13d, nuclease-dead (Eubacterium siraeum, UniProt B0MS50, R295A;H300A;R849A;H854A)
T1 sequence: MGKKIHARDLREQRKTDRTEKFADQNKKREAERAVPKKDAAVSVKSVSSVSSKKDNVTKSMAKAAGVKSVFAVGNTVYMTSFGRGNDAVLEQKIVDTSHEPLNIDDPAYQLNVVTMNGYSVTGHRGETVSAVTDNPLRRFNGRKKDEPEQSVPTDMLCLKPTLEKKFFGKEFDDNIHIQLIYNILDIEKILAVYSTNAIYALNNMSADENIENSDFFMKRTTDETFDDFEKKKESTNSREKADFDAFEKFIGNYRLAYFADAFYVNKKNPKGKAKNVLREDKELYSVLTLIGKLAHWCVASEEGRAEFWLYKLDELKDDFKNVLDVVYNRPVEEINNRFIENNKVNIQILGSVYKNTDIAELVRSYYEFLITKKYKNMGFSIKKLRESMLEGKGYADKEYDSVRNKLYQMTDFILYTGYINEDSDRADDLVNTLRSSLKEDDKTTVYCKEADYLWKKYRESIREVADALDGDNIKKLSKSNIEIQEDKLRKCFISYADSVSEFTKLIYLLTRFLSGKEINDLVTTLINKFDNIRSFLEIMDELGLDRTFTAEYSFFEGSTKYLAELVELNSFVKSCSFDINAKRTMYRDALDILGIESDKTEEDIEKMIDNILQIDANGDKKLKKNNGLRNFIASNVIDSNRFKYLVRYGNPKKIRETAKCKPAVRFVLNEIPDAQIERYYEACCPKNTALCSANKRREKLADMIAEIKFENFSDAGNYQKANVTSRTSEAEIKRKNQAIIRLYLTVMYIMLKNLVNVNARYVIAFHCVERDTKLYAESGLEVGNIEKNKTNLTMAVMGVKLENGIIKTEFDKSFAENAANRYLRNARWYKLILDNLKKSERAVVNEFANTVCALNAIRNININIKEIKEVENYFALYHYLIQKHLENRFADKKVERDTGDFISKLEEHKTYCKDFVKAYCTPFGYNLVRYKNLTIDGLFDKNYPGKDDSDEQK

B1: target 1 insC 3' of 19,insC 3' of 9 (mixed)
RNA 1: CACCCGUGCAAAAAUGCAGGGGUCUAAAACUGAGCGGAUAACCUCUCUAUGG
RNA 2: GGGAAUGGAUCCACAUCUACGAAUUCGUACCAUCAGAGAGGUUACUCCGCUCACCGAGAUCGGAAGAGCACACGU
B2: target 1 A1U,A9C (mixed)
RNA 1: B1 RNA 1
RNA 2: GGGAAUGGAUCCACAUCUACGAAUUCGUACCAUAGAGAGGUUCUCCGCUCUCCGAGAUCGGAAGAGCACACGU
B3: target 1 insA 3' of 10,insC 3' of 3 (mixed)
RNA 1: B1 RNA 1
RNA 2: GGGAAUGGAUCCACAUCUACGAAUUCGUACCAUAGAGAGGUUAAUCCGCUCCACCGAGAUCGGAAGAGCACACGU
B4: target 1 U10A,C21A (mixed)
RNA 1: B1 RNA 1
RNA 2: B2 RNA 2 with C31A, U42A, C43A, U51A
B5: target 1 insU 3' of 15,insU 3' of 15 (mixed)
RNA 1: B1 RNA 1
RNA 2: GGGAAUGGAUCCACAUCUACGAAUUCGUACCAUAGAGUUAGGUUAUCCGCUCACCGAGAUCGGAAGAGCACACGU
B6: target 1 C6A,G13U (mixed)
RNA 1: B1 RNA 1
RNA 2: B2 RNA 2 with G39U, C43A, C46A, U51A
B7: target 1 C2A,U11A (mixed)
RNA 1: B1 RNA 1
RNA 2: B2 RNA 2 with U41A, C43A, C50A, U51A
B8: target 1 insU 3' of 4 (mixed)
RNA 1: B1 RNA 1
RNA 2: GGGAAUGGAUCCACAUCUACGAAUUCGUACCAUAGAGAGGUUAUCCGCUUCACCGAGAUCGGAAGAGCACACGU
B9: target 1 U8A,A16G (mixed)
RNA 1: B1 RNA 1
RNA 2: B2 RNA 2 with A36G, C43A, U44A, U51A
B10: target 1 insU 3' of 22,insC 3' of 5 (mixed)
RNA 1: B1 RNA 1
RNA 2: B1 RNA 2 with C31U, A32C, U33A, C34U, C45U, U46C, C48G, G49C
B11: target 1 insU 3' of 9,insU 3' of 1 (mixed)
RNA 1: B1 RNA 1
RNA 2: B3 RNA 2 with A44U, C52A, A53U
B12: target 1 insA 3' of 22,insA 3' of 4 (mixed)
RNA 1: B1 RNA 1
RNA 2: B1 RNA 2 with C31A, A32C, U33A, C34U, C45U, U46C, C48G, G49C, C50A
B13: target 1 U8A,G17U (mixed)
RNA 1: B1 RNA 1
RNA 2: B2 RNA 2 with G35U, C43A, U44A, U51A
B14: target 1 insG 3' of 14,insU 3' of 13 (mixed)
RNA 1: B1 RNA 1
RNA 2: B5 RNA 2 with U38A, U39G, A40G, G41U
B15: target 1 insA 3' of 11,insA 3' of 5 (mixed)
RNA 1: B1 RNA 1
RNA 2: B3 RNA 2 with U42A, A43U, C49A, U50C, C51U
B16: target 1 U10G,G15A (mixed)
RNA 1: B1 RNA 1
RNA 2: B2 RNA 2 with G37A, U42G, C43A, U51A
B17: target 1 insA 3' of 15,insA 3' of 7 (mixed)
RNA 1: B1 RNA 1
RNA 2: B3 RNA 2 with G39A, U41G, A43U, C47A, G48C, C49G, U50C, C51U
B18: target 1 insG 3' of 8,insU 3' of 7 (mixed)
RNA 1: B1 RNA 1
RNA 2: B3 RNA 2 with A44U, U45G, C47U, G48C, C49G, U50C, C51U
B19: target 1 insC 3' of 20,insG 3' of 7 (mixed)
RNA 1: B1 RNA 1
RNA 2: B1 RNA 2 with U33C, C34U, C45U, U46C, C47G
B20: target 1 insA 3' of 7,insG 3' of 4 (mixed)
RNA 1: B1 RNA 1
RNA 2: B3 RNA 2 with A44U, U45C, C46A, U50G, C51U
B21: target 1 C7G,C21U (mixed)
RNA 1: B1 RNA 1
RNA 2: B2 RNA 2 with C31U, C43A, C45G, U51A
B22: target 1 G13C,G15C (mixed)
RNA 1: B1 RNA 1
RNA 2: B2 RNA 2 with G37C, G39C, C43A, U51A
B23: target 1 insU 3' of 21,insC 3' of 11 (mixed)
RNA 1: B1 RNA 1
RNA 2: B1 RNA 2 with A32U, U33A, C34U, U43C, A44U, C45A
B24: target 1 A9U,G15A (mixed)
RNA 1: B1 RNA 1
RNA 2: B2 RNA 2 with G37A, C43U, U51A
B25: target 1 G5U,C7A (mixed)
RNA 1: B1 RNA 1
RNA 2: B2 RNA 2 with C43A, C45A, G47U, U51A
B26: target 1 insA 3' of 17,insG 3' of 14 (mixed)
RNA 1: B1 RNA 1
RNA 2: B5 RNA 2 with G37A, U38G, U39A, A40G
B27: target 1 insC 3' of 22,insG 3' of 8 (mixed)
RNA 1: B1 RNA 1
RNA 2: B1 RNA 2 with A32C, U33A, C34U, C45U, U46G
B28: target 1 C7G,G12C (mixed)
RNA 1: B1 RNA 1
RNA 2: B2 RNA 2 with G40C, C43A, C45G, U51A
B29: target 1 U8G,C21A (mixed)
RNA 1: B1 RNA 1
RNA 2: B2 RNA 2 with C31A, C43A, U44G, U51A
B30: target 1 insA 3' of 22,insG 3' of 11 (mixed)
RNA 1: B1 RNA 1
RNA 2: B1 RNA 2 with C31A, A32C, U33A, C34U, U43G, A44U, C45A
B31: target 1 insA 3' of 21,insA 3' of 13 (mixed)
RNA 1: B1 RNA 1
RNA 2: B1 RNA 2 with U33A, C34U, G41A, U42G, A44U, C45A
B32: target 1 U8C,G12C (mixed)
RNA 1: B1 RNA 1
RNA 2: B2 RNA 2 with G40C, C43A, U44C, U51A
B33: target 1 insA 3' of 17,insU 3' of 16 (mixed)
RNA 1: B1 RNA 1
RNA 2: B5 RNA 2 with G37A, U39G

target: T1, EsCas13d, nuclease-dead; assay: crRNA (strand 1, pre-loaded); Mg2+; 40 mM Tris-HCl pH 7.5, 150 mM NaCl, 6 mM MgCl2, 1 mM DTT, 0.1% Tween-20, 0.2 mg/ml BSA; 25 C; 10 min per concentration, then washed; settings: tags: His6-TwinStrep-SUMO cleaved; N-terminal SNAP kept (SNAP-Surface 488); label: 3' end held by stalled T7 RNA polymerase

Row | Binder | Kd
1 | B1 | 56 ± 11 nM
2 | B2 | 15.4 ± 1.7 nM
3 | B3 | 10.3 ± 0.6 nM
4 | B4 | 33 ± 5 nM
5 | B5 | 17.6 ± 1.2 nM
6 | B6 | 34 ± 4 nM
7 | B7 | 21.6 ± 1.4 nM
8 | B8 | 8.7 ± 0.7 nM
9 | B9 | 64 ± 6 nM
10 | B10 | 100 ± 50 nM
11 | B11 | 32 ± 7 nM
12 | B12 | 7.8 ± 1.1 nM
13 | B13 | 61 ± 8 nM
14 | B14 | 22.8 ± 2.7 nM
15 | B15 | 8.7 ± 0.4 nM
16 | B16 | 53 ± 15 nM
17 | B17 | 4.65 ± 0.17 nM

Row | Binder | Kd
18 | B18 | 14.1 ± 0.5 nM
19 | B19 | 8.8 ± 0.4 nM
20 | B20 | 5.33 ± 0.17 nM
21 | B21 | 6.7 ± 0.31 nM
22 | B22 | 52 ± 22 nM
23 | B23 | 81 ± 21 nM
24 | B24 | 19.1 ± 1.4 nM
25 | B25 | 56 ± 9 nM
26 | B26 | 15.5 ± 0.7 nM
27 | B27 | 33 ± 4 nM
28 | B28 | 23.6 ± 1.4 nM
29 | B29 | 54 ± 11 nM
30 | B30 | 42 ± 8 nM
31 | B31 | 11.7 ± 0.7 nM
32 | B32 | 18.1 ± 0.6 nM
33 | B33 | 38 ± 8 nM
